Experiment [1] deals with T1, human serum albumin (HSA) (human, UniProt P02768 25-609). The experiment is described as follows: ELISA, HSA coated at 1 µg/ml, HRP goat anti-human Fd detection. (In general: An ELISA detects its analyte on a solid surface through an enzyme-linked reagent.)
Protocol: After blocking for 2 hours, washing was performed by repeatedly performing a process of completely removing the added buffer, adding each 300 μl of a buffer (PBS-T) containing 0.1% tween-20 PBS (pH 7.4), and then removing the buffer 3 times in total. After removing water remaining after the washing, the respective antibodies were serially diluted 10 folds at concentrations decreasing from 100 nM to 1.0×10⁻⁴ nM in a PBS pH 7.4 buffer (0.3% PBA) containing 0.3% bovine serum albumin and 0.1% tween-20, and each 100 μl of the diluted antibody samples were added to each well to be allowed to react at room temperature for 2 hours. After washing in the same manner as described above, HRP-conjugated goat anti-human Fd antibodies (Southern Biotechnology, Birmingham, Ala.) were diluted with a 0.3% PBA buffer in 1:4,000, and each 100 μl of the diluted antibody samples were added to each well to then be allowed to react at room temperature for 1 hour. To assess antigen-specific binding of the antibodies reacting after the washing, a TMB substrate (BD Bioscience, Franklin Lakes, N.J.) was added and reacted, and the absorbance was measured using a microplate spectrophotometer at A450 nm.
(§1) HRP-conjugated goat anti-human Fd antibodies were used as secondary antibodies.
Experiment [2] deals with T2, recombinant human TNF-α protein (human, UniProt P01375 77-233).
T2 construct: also called soluble TNF-α; recombinant soluble TNF-α protein
The experiment can be described thus: ELISA, recombinant human TNF-α coated at 1 µg/ml, HRP goat anti-human Fd detection.
Protocol: After washing in the same manner as described above, HRP-conjugated goat anti-human Fd antibodies (Southern Biotechnology, Birmingham, Ala.) were diluted with a 0.3% PBA buffer in 1:4,000, and each 100 μl of the diluted antibody samples were added to each well to then be allowed to react at room temperature for 1 hour. To assess antigen-specific binding of the antibodies reacting after the washing, a TMB substrate (BD Bioscience, Franklin Lakes, N.J.) was added and reacted, and the absorbance was measured using a microplate spectrophotometer at A450 nm.
as §1

In experiment [3] the target is T3, cell membrane CD40L expressed on D1.1 cells (UniProt P29965 1-261, limits assumed).
T3 sequence (looked up): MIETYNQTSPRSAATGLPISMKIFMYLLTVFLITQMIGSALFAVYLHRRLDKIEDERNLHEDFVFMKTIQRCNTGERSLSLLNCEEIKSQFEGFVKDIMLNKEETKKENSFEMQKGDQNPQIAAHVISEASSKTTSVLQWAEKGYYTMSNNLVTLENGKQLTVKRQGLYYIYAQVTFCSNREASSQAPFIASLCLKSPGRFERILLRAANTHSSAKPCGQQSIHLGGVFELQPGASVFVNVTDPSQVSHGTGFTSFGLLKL
The experiment can be described thus: cell-based or functional assay.

The target in experiment [4] is T2, recombinant human TNF-α protein. The experiment can be described thus: cell-based or functional assay.
Experiment [5] addresses T4, recombinant human CD40L (rhCD40L-his) (human, UniProt P29965 113-261, limits assumed).
T4 construct: Soluble recombinant form made by the applicant; also called rhCD40L antigen
T4 sequence (looked up): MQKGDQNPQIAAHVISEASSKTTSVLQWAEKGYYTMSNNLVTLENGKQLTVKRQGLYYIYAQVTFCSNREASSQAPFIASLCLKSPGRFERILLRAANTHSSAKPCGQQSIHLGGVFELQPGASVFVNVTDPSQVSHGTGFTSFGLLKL
The experiment is described as follows: ELISA, CD40L coated at 1 µg/ml.

Experiment [6] has as its target T4, recombinant human CD40L (rhCD40L-his). The experiment is described as follows: ELISA, recombinant human CD40L coated at 1 µg/ml, HRP goat anti-human Fd detection.
Experiment [7] concerns the target T1, human serum albumin (HSA). The experiment is described as follows: BLI (Octet RED), antigen on AR2G biosensor. In general terms: In BLI a coated tip is dipped into the sample, and binding shifts an interference pattern.
Experiment [8] concerns the target T4, recombinant human CD40L (rhCD40L-his). The experiment can be described thus: BLI (Octet RED), antigen on AR2G biosensor.
Experiment [9] has as its target T2, recombinant human TNF-α protein. The experiment can be described thus: BLI (Octet RED), antigen on AR2G biosensor.

T2 sequence (P01375 77-233 limits assumed): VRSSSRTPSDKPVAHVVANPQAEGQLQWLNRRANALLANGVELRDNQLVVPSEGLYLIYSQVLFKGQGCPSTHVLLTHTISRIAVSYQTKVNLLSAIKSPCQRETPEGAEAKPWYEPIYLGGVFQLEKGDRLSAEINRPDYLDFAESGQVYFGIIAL

B1: APB-B1a, (anti-CD40L scFv)2-(anti-HSA SL335 Fab)-(anti-TNF-α Fv) (bispecific antibody)
chain 1: DIVLTQSPATLSVSPGERATISCRASQRVSSSTYSYMHWYQQKPGQPPKLLIKYASNLESGVPARFSGSGSGTDFTLTISSVEPEDFATYYCQHSWEIPPTFGGGTKLEIKRGGGGSGGGGSGGGGSQVQLVQSGAEVVKPGASVKLSCKASGYIFTSYYMYWVKQAPGQGLEWIGEINPSNGDTNFNEKFKSKATLTVDKSASTAYMELSSLRSEDTAVYYCTRSDGRNDMDSWGQGTLVTVSSGGGGSGGGGSGGGGSQVQLVQSGGGPVKPGGSLRLSCAASGFMFRAYSMNWVRQAPGKGLEWVSSISSSGRYIHYADSVKGRFTISRDNAKNSLYLQMNSLRAEDTAVYYCARETVMAGKALDYWGQGTLVTVSSASTKGPSVFPLAPSSKSTSEGTAALGCLVKDYFPEPVTVSWNSGALTSGVHTFPAVLQSSGLYSLSSVVTVPSSSLGTQTYICNVNHKPSNTKVDKKVEPKSSGGGGSGGGGSGGGGSEVQLVESGGGLVQPGGSLRLSCAASGYVFTDYGMNWVRQAPGKGLEWMGWINTYIGEPIYADSVKGRFTFSLDTSKSTAYLQMNSLRAEDTAVYYCARGYRSYAMDYWGQGTLVTVSS
chain 2: DIVLTQSPATLSVSPGERATISCRASQRVSSSTYSYMHWYQQKPGQPPKLLIKYASNLESGVPARFSGSGSGTDFTLTISSVEPEDFATYYCQHSWEIPPTFGGGTKLEIKRGGGGSGGGGSGGGGSQVQLVQSGAEVVKPGASVKLSCKASGYIFTSYYMYWVKQAPGQGLEWIGEINPSNGDTNFNEKFKSKATLTVDKSASTAYMELSSLRSEDTAVYYCTRSDGRNDMDSWGQGTLVTVSSGSTSGSGKPGSGEGSTKGDIVLTQSPGTLSLSPGETATLSCRASQSVGSNLAWYQQKPGQAPRLLIYGASTGATGVPARFSGSRSGTDFTLTITSLQPEDFATYYCQQYYSFLAKTFGQGTQLEIKRTVAAPSVFIFPPSDEQLKSGTASVVCLLNNFYPREAKVQWKVDNALQSGNSQESVTEQDSKDSTYSLSNTLTLSKADYEKHKVYACEVTHQGLSSPVTKSFNRGESGSTSGSGKPGSGEGSTKGDIQMTQSPSSLSASVGDRVTITCKASQNVGTNVAWYQQKPGKAPKALIYSASFLYSGVPYRFSGSGSGTDFTLTISSLQPEDFATYYCQQYNIYPLTFGQGTKVEIKR
As a reminder, the EC50 (read off the curve) is the concentration that produces a half-maximal response. As usually defined, the Kd is the equilibrium constant for the complex coming apart. By koff is commonly meant a measure of how fast the partners let go of each other. A word on the kon: it is the rate constant with which the complex forms. In the case of B1, the “EC50 (read off the curve)” value in experiment [1] is roughly 0.5 nM; in [2] it was roughly 1 nM; in experiment [6], roughly 0.2 nM. For the same molecule, the “percent inhibition, SEAP response of HEK-Blue reporter cells + D1.1 cells + soluble TNF-α together (FIG. 22C)” value in experiment [3] and in experiment [4] was 100% each time. In [4], the “IC50, SEAP response of HEK-Blue reporter cells + soluble TNF-α 10 ng/ml (FIG. 22B)” value worked out at 3.05 nM. In addition, the “IC50, inhibition of TNF-α mediated cytotoxicity on L929 mouse cells, with HSA (FIG. 21)” value in experiment [4] was determined as 5.3 nM. Also, in experiment [5], the “fold lower binding capacity than anti-human CD40L IgG1 (ruplizumab)” value is roughly 1.5 fold. In addition, the values for the Kd in [7], in [8] and in experiment [9] were 0.765 nM, 0.192 nM and 0.164 nM, respectively. In addition, the figures for the koff in experiment [7], in experiment [8] and in experiment [9] were 0.00042 s⁻¹, 0.000113 s⁻¹ and 3.82e-05 s⁻¹, respectively. Further, the kon in [7] was 549000 M⁻¹ s⁻¹; in [8], 590000 M⁻¹ s⁻¹; in experiment [9], 230000 M⁻¹ s⁻¹.

B2: SL335 Fab (anti-human serum albumin Fab) (Fab, V domains shown)
VH: QVQLVQSGGGPVKPGGSLRLSCAASGFMFRAYSMNWVRQAPGKGLEWVSSISSSGRYIHYADSVKGRFTISRDNAKNSLYLQMNSLRAEDTAVYYCARETVMAGKALDYWGQGTLVTVSS
VL: DIVLTQSPGTLSLSPGETATLSCRASQSVGSNLAWYQQKPGQAPRLLIYGASTGATGVPARFSGSRSGTDFTLTITSLQPEDFATYYCQQYYSFLAKTFGQGTQLEIKR
notes: also called anti-HSA Fab (SL335)
On to B2, for which the “EC50 (read off the curve)” value in experiment [1] is roughly 0.3 nM. Further, the binding result in experiment [2] was “no binding (tested: 100 nM)”.

B3: APB-A1, (anti-CD40L hu5c8 scFv)2-anti-HSA SL335 Fab (bispecific antibody)
heavy: DIVLTQSPATLSVSPGERATISCRASQRVSSSTYSYMHWYQQKPGQPPKLLIKYASNLESGVPARFSGSGSGTDFTLTISSVEPEDFATYYCQHSWEIPPTFGGGTKLEIKRGGGGSGGGGSGGGGSQVQLVQSGAEVVKPGASVKLSCKASGYIFTSYYMYWVKQAPGQGLEWIGEINPSNGDTNFNEKFKSKATLTVDKSASTAYMELSSLRSEDTAVYYCTRSDGRNDMDSWGQGTLVTVSSGGGGSGGGGSGGGGSQVQLVQSGGGPVKPGGSLRLSCAASGFMFRAYSMNWVRQAPGKGLEWVSSISSSGRYIHYADSVKGRFTISRDNAKNSLYLQMNSLRAEDTAVYYCARETVMAGKALDYWGQGTLVTVSSASTKGPSVFPLAPSSKSTSEGTAALGCLVKDYFPEPVTVSWNSGALTSGVHTFPAVLQSSGLYSLSSVVTVPSSSLGTQTYICNVNHKPSNTKVDKKVEPKSS
light: DIVLTQSPATLSVSPGERATISCRASQRVSSSTYSYMHWYQQKPGQPPKLLIKYASNLESGVPARFSGSGSGTDFTLTISSVEPEDFATYYCQHSWEIPPTFGGGTKLEIKRGGGGSGGGGSGGGGSQVQLVQSGAEVVKPGASVKLSCKASGYIFTSYYMYWVKQAPGQGLEWIGEINPSNGDTNFNEKFKSKATLTVDKSASTAYMELSSLRSEDTAVYYCTRSDGRNDMDSWGQGTLVTVSSGSTSGSGKPGSGEGSTKGDIVLTQSPGTLSLSPGETATLSCRASQSVGSNLAWYQQKPGQAPRLLIYGASTGATGVPARFSGSRSGTDFTLTITSLQPEDFATYYCQQYYSFLAKTFGQGTQLEIKRTVAAPSVFIFPPSDEQLKSGTASVVCLLNNFYPREAKVQWKVDNALQSGNSQESVTEQDSKDSTYSLSNTLTLSKADYEKHKVYACEVTHQGLSSPVTKSFNRGES
notes: No Fc; also called (anti-hu5c8 scFv)2-SL335; (anti-CD40L scFv)2-anti-HSA Fab
Turning to B3, in experiment [1], the “EC50 (read off the curve)” value was roughly 0.5 nM. For the same molecule, in experiment [2], the binding result is given as “no binding (tested: 100 nM)”.

The record behind these values is US20230073034A1 (APRILBIO, published 2023).
